Data taken from publication PMC11995519, “Structural insights into the human NuA4/TIP60 acetyltransferase and chromatin remodeling complex” (Science (New York, N.Y.), 2024).

Target: T1, transformation/transcription domain-associated protein (TRRAP) (human (endogenous in K562), UniProt Q9Y4A5 1-3859)
T1 construct: transformation/transcription domain-associated protein (TRRAP), human; also called TRRAP module; source: endogenous, K562 extract; co-purified with tagged EP400 constructs
Test: cryo-EM structure; TRRAP-EP400Cter purified by the tagged EP400 truncation 2188-3159, glutaraldehyde cross-linked; 3.4 Å
Settings: both partners purified

T1 sequence (Q9Y4A5 whole entry, the tested form may be a part): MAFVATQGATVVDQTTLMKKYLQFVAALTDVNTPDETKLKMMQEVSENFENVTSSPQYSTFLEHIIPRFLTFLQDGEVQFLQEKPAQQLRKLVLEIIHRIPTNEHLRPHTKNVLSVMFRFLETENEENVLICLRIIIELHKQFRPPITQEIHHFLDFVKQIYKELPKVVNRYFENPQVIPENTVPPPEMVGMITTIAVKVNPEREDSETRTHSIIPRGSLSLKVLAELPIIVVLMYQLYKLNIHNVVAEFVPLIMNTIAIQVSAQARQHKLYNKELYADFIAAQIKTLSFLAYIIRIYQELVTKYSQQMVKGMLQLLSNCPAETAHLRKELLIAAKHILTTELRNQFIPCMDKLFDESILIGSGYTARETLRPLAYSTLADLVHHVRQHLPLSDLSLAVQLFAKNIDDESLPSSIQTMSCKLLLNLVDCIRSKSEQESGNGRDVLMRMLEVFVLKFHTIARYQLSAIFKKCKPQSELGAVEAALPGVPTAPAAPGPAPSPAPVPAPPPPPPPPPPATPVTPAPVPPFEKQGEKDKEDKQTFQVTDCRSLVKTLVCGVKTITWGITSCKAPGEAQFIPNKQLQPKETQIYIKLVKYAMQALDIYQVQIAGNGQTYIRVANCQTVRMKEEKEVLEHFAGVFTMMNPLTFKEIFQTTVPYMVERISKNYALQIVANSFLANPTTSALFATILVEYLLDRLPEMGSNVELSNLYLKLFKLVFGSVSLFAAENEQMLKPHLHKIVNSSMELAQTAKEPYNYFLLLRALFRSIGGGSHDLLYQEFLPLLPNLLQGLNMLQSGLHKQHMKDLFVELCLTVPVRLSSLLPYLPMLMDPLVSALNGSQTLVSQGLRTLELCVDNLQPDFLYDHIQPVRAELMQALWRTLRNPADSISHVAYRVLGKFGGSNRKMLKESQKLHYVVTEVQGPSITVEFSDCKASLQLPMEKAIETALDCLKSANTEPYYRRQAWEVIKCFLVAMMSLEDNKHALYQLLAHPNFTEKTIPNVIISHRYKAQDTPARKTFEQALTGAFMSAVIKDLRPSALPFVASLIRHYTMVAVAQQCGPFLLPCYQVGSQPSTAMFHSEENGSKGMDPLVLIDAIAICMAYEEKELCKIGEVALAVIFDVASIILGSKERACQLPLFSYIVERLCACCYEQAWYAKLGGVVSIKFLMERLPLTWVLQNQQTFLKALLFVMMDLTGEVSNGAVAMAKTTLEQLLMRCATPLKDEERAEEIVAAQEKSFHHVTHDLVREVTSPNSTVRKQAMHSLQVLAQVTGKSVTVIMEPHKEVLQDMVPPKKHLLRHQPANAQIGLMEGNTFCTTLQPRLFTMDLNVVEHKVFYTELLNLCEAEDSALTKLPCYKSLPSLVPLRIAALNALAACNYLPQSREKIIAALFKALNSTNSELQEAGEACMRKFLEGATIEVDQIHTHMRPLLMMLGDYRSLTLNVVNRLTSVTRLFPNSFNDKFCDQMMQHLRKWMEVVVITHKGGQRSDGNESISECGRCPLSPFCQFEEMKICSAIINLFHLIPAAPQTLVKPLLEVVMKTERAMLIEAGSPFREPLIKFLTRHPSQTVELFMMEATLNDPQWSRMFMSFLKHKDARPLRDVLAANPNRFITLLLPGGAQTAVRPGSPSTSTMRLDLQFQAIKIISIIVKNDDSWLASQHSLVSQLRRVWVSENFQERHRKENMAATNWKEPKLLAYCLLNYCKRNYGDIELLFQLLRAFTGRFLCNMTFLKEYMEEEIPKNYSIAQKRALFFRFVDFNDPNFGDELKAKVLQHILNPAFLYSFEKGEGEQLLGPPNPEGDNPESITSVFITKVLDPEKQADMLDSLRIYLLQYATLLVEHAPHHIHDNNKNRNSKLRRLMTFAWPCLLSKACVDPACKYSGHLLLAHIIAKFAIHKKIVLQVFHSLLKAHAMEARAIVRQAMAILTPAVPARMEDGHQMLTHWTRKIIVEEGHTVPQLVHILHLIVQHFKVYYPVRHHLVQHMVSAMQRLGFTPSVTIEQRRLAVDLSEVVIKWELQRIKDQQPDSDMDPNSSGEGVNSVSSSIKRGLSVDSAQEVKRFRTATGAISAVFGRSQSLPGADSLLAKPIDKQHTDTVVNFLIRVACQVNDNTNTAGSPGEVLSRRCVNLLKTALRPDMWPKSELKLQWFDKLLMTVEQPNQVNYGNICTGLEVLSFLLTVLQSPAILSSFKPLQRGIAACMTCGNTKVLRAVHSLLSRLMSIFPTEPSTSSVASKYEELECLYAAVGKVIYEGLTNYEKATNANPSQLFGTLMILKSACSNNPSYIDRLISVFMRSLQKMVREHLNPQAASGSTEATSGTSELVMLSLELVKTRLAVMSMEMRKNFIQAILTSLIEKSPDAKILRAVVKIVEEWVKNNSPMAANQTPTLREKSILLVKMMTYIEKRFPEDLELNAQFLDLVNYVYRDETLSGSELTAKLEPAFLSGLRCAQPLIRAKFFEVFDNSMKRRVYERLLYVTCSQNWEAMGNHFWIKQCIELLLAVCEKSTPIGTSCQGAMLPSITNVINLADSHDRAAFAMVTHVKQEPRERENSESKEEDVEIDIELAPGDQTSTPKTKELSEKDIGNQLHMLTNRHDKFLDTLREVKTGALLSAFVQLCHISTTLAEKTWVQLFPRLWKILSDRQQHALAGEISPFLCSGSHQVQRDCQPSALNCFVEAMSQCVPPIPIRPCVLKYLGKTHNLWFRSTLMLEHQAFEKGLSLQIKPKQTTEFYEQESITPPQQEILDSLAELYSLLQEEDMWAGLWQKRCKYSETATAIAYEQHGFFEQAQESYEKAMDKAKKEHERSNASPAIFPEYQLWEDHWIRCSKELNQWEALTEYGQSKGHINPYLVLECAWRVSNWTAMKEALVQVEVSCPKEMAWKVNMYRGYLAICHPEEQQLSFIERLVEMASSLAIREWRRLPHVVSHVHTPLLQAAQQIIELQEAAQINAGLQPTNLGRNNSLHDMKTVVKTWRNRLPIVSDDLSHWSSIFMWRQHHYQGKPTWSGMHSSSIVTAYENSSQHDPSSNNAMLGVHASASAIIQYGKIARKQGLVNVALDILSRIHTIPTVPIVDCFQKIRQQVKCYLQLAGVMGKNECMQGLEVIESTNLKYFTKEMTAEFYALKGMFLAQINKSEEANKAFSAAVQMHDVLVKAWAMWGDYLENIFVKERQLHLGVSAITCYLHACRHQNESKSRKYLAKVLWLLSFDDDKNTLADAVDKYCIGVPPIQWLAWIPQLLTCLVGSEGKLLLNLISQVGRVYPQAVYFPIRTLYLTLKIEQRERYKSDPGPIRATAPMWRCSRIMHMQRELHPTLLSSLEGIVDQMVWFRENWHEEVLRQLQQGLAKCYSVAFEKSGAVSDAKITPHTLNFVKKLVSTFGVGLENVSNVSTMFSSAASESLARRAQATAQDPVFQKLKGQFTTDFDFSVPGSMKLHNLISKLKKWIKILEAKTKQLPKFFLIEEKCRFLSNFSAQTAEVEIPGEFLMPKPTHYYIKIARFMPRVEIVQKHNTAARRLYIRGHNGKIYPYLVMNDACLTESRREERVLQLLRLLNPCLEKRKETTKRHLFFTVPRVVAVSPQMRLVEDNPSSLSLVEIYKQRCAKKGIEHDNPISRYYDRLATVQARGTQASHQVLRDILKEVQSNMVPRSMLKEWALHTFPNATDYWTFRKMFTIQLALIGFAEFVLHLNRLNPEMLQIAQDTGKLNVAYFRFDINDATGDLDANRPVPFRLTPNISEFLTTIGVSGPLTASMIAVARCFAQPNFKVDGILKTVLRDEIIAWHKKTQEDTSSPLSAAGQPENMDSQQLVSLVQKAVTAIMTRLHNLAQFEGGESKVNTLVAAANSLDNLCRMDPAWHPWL

binding result: binds
B1: tagged truncation of EP400 containing just the C terminus after the ATPase domain (amino acid 2188 to 3159) (domain or fragment, human, UniProt Q96L91 2188-3159, looked up)
chain: AVMTAVRAWEFWNLKTLQEREARLRLEQEEAELLTYTREDAYSMEYVYEDVDGQTEVMPLWTPPTPPQDDSDIYLDSVMCLMYEATPIPEAKLPPVYVRKERKRHKTDPSAAGRKKKQRHGEAVVPPRSLFDRATPGLLKIRREGKEQKKNILLKQQVPFAKPLPTFAKPTAEPGQDNPEWLISEDWALLQAVKQLLELPLNLTIVSPAHTPNWDLVSDVVNSCSRIYRSSKQCRNRYENVIIPREEGKSKNNRPLRTSQIYAQDENATHTQLYTSHFDLMKMTAGKRSPPIKPLLGMNPFQKNPKHASVLAESGINYDKPLPPIQVASLRAERIAKEKKALADQQKAQQPAVAQPPPPQPQPPPPPQQPPPPLPQPQAAGSQPPAGPPAVQPQPQPQPQTQPQPVQAPAKAQPAITTGGSAAVLAGTIKTSVTGTSMPTGAVSGNVIVNTIAGVPAATFQSINKRLASPVAPGALTTPGGSAPAQVVHTQPPPRAVGSPATATPDLVSMATTQGVRAVTSVTASAVVTTNLTPVQTPARSLVPQVSQATGVQLPGKTITPAHFQLLRQQQQQQQQQQQQQQQQQQQQQQQQQQQQQTTTTSQVQVPQIQGQAQSPAQIKAVGKLTPEHLIKMQKQKLQMPPQPPPPQAQSAPPQPTAQVQVQTSQPPQQQSPQLTTVTAPRPGALLTGTTVANLQVARLTRVPTSQLQAQGQMQTQAPQPAQVALAKPPVVSVPAAVVSSPGVTTLPMNVAGISVAIGQPQKAAGQTVVAQPVHMQQLLKLKQQAVQQQKAIQPQAAQGPAAVQQKITAQQITTPGAQQKVAYAAQPALKTQFLTTPISQAQKLAGAQQVQTQIQVAKLPQVVQQQTPVASIQQVASASQQASPQTVALTQATAAGQQVQMIPAVTATAQVVQQKLIQQQVVTTASAPLQTPGAPNPAQVPASSDSPSQQPKLQMRVPAVRLKTPTKPPCQ
notes: 137 residues (SANT and HD domains) are resolved; also called EP400Cter; C-terminal segment of EP400; source: new cell line expressing the tagged truncation
